Results on 33 molecules are retold here after patent US20180362585A1 (Bicycle, published 2018).

Test [1] has as its target T1, human plasma Kallikrein (human, UniProt P03952 20-638).
T1 construct: also called hPK; human PK
Description: enzyme inhibition. The method, then: Functional enzyme assays were conducted in 10 mM Tris HCl, 150 mM NaCl, 10 mM MgCl2, 1 mM CaCl₂) and 1 mg/mL BSA (all Sigma UK) pH7.4 at 25° C. in solid black 96 well plates. […] Release of AMC was measured using a Pherastar FS (BMG Labtech), excitation 360 nm, emission 460 nm. The rate of the linear phase of the reaction, typically 5 to 45 minutes, was calculated in MARS data analysis software (BMG labtech). The rate was then used to calculate the IC50 and Ki in Prism (GraphPad).

The target in test [2] is T1, human plasma Kallikrein. Put plainly: phage binding assay. The method, then: Library transformant colonies, or selection output colonies, were picked and grown as individual cultures in 2TY broth containing selective antibiotic. The picked colonies were DNA-sequenced using a QIAgen PyroMark Q96 DNA sequencer to reveal the amino-acid substitution present in each clone, and were assayed for human plasma Kallikrein binding as follows. The phage-containing supernatant was harvested from the culture and phage were cyclised with tris bromomethyl benzene (TBMB) based on the methods of Heinis et al (Nature Chemical Biology vol. 5 pp 502-507 (2009)). The purified phage from this process were assayed for binding to biotinylated human plasma Kallikrein using a homogeneous plate-based binding assay; assay read-out measured on a BMG Labtech Pherastar FS plate reader. The quantitative binding data from duplicate assay samples was averaged (mean) and expressed as signal:background. […] The assay data was correlated with the peptide sequences.
Selections against human plasma Kallikrein were performed at a variety of stringencies (see Phage selections' in Methods above). All output sequences were identified and analysed for target binding (see ‘Randomisation of peptide domains—Assay of binding of individual clones’ in Methods above). Table 17 lists each unique sequence, its relative abundance in the selection output (frequency), and a rank number according to target binding strength.

Test [3] addresses T1, human plasma Kallikrein. Put plainly: phage binding assay. This is another data set of the same source.

Numbered stars: 1 amine (or outer) side, 2 acyl side, 3 side chain; on linkers, the order of the positions; unused ones are H or OH. Bridge positions count the residues as written; N and C are the ends. Square brackets hold non-standard residues; d marks the D form. Ends that are not written are not given here. TBMB = c1c(C[*:1])cc(C[*:3])cc1C[*:2]; Sar = CNCC(=O)O

T1 sequence (P03952 20-638 limits assumed): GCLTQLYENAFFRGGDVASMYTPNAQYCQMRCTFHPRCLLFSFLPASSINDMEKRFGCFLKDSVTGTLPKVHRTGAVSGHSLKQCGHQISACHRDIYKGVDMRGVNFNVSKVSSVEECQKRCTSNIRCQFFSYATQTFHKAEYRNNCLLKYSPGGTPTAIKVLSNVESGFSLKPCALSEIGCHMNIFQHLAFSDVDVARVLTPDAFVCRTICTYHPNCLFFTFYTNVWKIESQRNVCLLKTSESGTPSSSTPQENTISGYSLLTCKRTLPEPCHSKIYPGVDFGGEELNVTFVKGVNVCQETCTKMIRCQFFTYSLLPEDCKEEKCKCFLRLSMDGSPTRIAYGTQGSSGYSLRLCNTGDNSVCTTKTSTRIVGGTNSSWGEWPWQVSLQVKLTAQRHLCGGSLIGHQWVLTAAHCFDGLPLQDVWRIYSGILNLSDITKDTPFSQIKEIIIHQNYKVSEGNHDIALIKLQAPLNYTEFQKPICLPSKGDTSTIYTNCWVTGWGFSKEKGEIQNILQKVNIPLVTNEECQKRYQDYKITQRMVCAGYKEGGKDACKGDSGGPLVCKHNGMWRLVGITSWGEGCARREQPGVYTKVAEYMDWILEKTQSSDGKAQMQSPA

One may read the Ki as a measure of affinity in units of concentration, obtained from inhibition or displacement. A lower Ki goes with a stronger hold on the target. In the test with human plasma Kallikrein [1], AC[Sar]WPARC[Sar]HQDLCA (linker 2-8-14 via TBMB; not fully specified (N-terminus, C-terminus), also called AC(N-MeG)WPARC(N-MeG)HQDLCA) [06-34-03 - N-MeGly1,6] showed a Ki of 24.8 nM.

ACAWPAKCLTRELCA (linker 2-8-14 via TBMB; not fully specified (N-terminus, C-terminus)) [1B1]: the Ki in the test with human plasma Kallikrein [1] worked out at 8.1 nM.

As for CSHRRWCTHQDLC (linker 1-7-13 via TBMB (inferred), on phage), in the test with human plasma Kallikrein [2], the “RANK (Kallikrein binding)” value worked out at 41.

On to ACGVPYRCTHQEMCA (linker 2-8-14 via TBMB; not fully specified (N-terminus, C-terminus)) [06-64 T], for which the affinity in the test with human plasma Kallikrein [1], expressed as Ki, was 6.9 nM.

In the test with human plasma Kallikrein [1], ACNWPYRCLHTDLCA (linker 2-8-14 via TBMB; not fully specified (N-terminus, C-terminus)) [06-157] showed a Ki of 3.3 nM. Compared with the last molecule, the Ki is about 2.1-fold lower.

In the test with human plasma Kallikrein [1], ACRWPARCLTTSLCA (linker 2-8-14 via TBMB; not fully specified (N-terminus, C-terminus)) [06-59] returned a Ki of 0.5 nM.

On to CSLFDHCTHQDLC (linker 1-7-13 via TBMB, on phage), for which, in the test with human plasma Kallikrein [2], the “RANK (Kallikrein binding)” value came out at 40.

As to CSWPARCTHQDLC (linker 1-7-13 via TBMB, on phage), the “BINDING ASSAY SIGNAL” value in the test with human plasma Kallikrein [3] turned out to be 110. For the same molecule, in the test with human plasma Kallikrein [2], the “RANK (Kallikrein binding)” value stood at 1.

For CSWPSRCTHQDLC (linker 1-7-13 via TBMB, on phage), the “RANK (Kallikrein binding)” value in the test with human plasma Kallikrein [2] stood at 2.

Consider CSWWARCTHQDLC (linker 1-7-13 via TBMB, on phage), for which, in the test with human plasma Kallikrein [2], the “RANK (Kallikrein binding)” value was found to be 27.

For CSYPWRCTHQDLC (linker 1-7-13 via TBMB, on phage), in the test with human plasma Kallikrein [2], the “RANK (Kallikrein binding)” value came out at 33.

CSWPYRCTHQDLC (linker 1-7-13 via TBMB, on phage): the “RANK (Kallikrein binding)” value with human plasma Kallikrein [2] turned out to be 10.

For CSWPYKCTHQDLC (linker 1-7-13 via TBMB, on phage), the “RANK (Kallikrein binding)” value in the test with human plasma Kallikrein [2] turned out to be 28.

On to CSWPFRCTHQDLC (linker 1-7-13 via TBMB, on phage), for which, in the test with human plasma Kallikrein [2], the “RANK (Kallikrein binding)” value amounted to 14.

On to CSWSYRCTHQDLC (linker 1-7-13 via TBMB, on phage), for which the “RANK (Kallikrein binding)” value in the test with human plasma Kallikrein [2] stood at 36.

In the case of CSYPIRCTHQDLC (linker 1-7-13 via TBMB, on phage), the “RANK (Kallikrein binding)” value in the test with human plasma Kallikrein [2] was 18.

With CSYPFRCTHQDLC (linker 1-7-13 via TBMB, on phage), the “RANK (Kallikrein binding)” value with human plasma Kallikrein [2] came to 21.

Turning to CSWLARCTHQDLC (linker 1-7-13 via TBMB, on phage), the “RANK (Kallikrein binding)” value with human plasma Kallikrein [2] was determined as 4.

With CSYPYRCTHQDLC (linker 1-7-13 via TBMB, on phage), the “RANK (Kallikrein binding)” value with human plasma Kallikrein [2] came out at 26.

Turning to CSWSARCTHQDLC (linker 1-7-13 via TBMB, on phage), in the test with human plasma Kallikrein [2], the “RANK (Kallikrein binding)” value was determined as 19.

On to CSWHARCTHQDLC (linker 1-7-13 via TBMB, on phage), for which the “RANK (Kallikrein binding)” value with human plasma Kallikrein [2] was 24.

With CSWAARCTHQDLC (linker 1-7-13 via TBMB, on phage), the “RANK (Kallikrein binding)” value with human plasma Kallikrein [2] was 7.

Consider CSWQARCTHQDLC (linker 1-7-13 via TBMB, on phage), for which the “RANK (Kallikrein binding)” value in the test with human plasma Kallikrein [2] turned out to be 42.

In the test with human plasma Kallikrein [1], ACTWPARCTHQNWCA (linker 2-8-14 via TBMB; not fully specified (N-terminus, C-terminus)) [06-09] returned a Ki of 1.2 nM.

In turn, ACTWPARCTMQNWCA (linker 2-8-14 via TBMB; not fully specified (N-terminus, C-terminus)) [06-A2*] came in with a Ki with human plasma Kallikrein [1] of 181 nM. Against the preceding molecule, the Ki is about 150-fold higher.

Take ACADPWACLFRRPCA (linker 2-8-14 via TBMB; not fully specified (N-terminus, C-terminus)) [06-63 T]: the Ki in the test with human plasma Kallikrein [1] stood at 1280 nM.

ACRWPARCTHQNYCA (linker 2-8-14 via TBMB; not fully specified (N-terminus, C-terminus)) [06-54 (2A2) T] returned a Ki in the test with human plasma Kallikrein [1] of 0.49 nM.

Molecule ACSWPARCNHQDLCA (linker 2-8-14 via TBMB; not fully specified (N-terminus, C-terminus)) [06-57] gave a Ki with human plasma Kallikrein [1] of 0.4 nM.

Turning to ACSWPYRCLHQDYCA (linker 2-8-14 via TBMB; not fully specified (N-terminus, C-terminus)) [06-61], in the test with human plasma Kallikrein [1], affinity was put at a Ki of 5.8 nM.

For ACTYPYKCLHQNLCA (linker 2-8-14 via TBMB) [2A10], the Ki in the test with human plasma Kallikrein [1] worked out at 4.98 nM.

With CSQVVGCTHQDLC (linker 1-7-13 via TBMB, on phage), the “RANK (Kallikrein binding)” value in the test with human plasma Kallikrein [2] came out at 38.

In the test with human plasma Kallikrein [1], ACGGYNNCRAFSYCA (linker 2-8-14 via TBMB; not fully specified (N-terminus, C-terminus)) [1F7] came in with a Ki of 2.2 nM. That is a single-digit nanomolar value.

In turn, ACAWPARCAHQDLCA (linker 2-8-14 via TBMB; not fully specified (N-terminus, C-terminus), also called R1A/V6A) [06-34-03 - Ala1,6] registered a Ki with human plasma Kallikrein [1] of 0.147 nM.
